# In IntAct's records for PubMed 25910212:
# B1: Progranulin (Homo sapiens), P28799 (parent)
# chain: MWTLVSWVALTAGLVAGTRCPDGQFCPVACCLDPGGASYSCCRPLLDKWPTTLSRHLGGPCQVDAHCSAGHSCIFTVSGTSSCCPFPEAVACGDGHHCCPRGFHCSADGRSCFQRSGNNSVGAIQCPDSQFECPDFSTCCVMVDGSWGCCPMPQASCCEDRVHCCPHGAFCDLVHTRCITPTGTHPLAKKLPAQRTNRAVALSSSVMCPDARSRCPDGSTCCELPSGKYGCCPMPNATCCSDHLHCCPQDTVCDLIQSKCLSKENATTDLLTKLPAHTVGDVKCDMEVSCPDGYTCCRLQSGAWGCCPFTQAVCCEDHIHCCPAGFTCDTQKGTCEQGPHQVPWMEKAPAHLSLPDPQALKRDVPCDNVSSCPSSDTCCQLTSGEWGCCPIPEAVCCSDHQHCCPQGYTCVAEGQCQRGSEIVAGLEKMPARRASLSHPRDIGCDQHTSCPVGQTCCPSLGGSWACCQLPHAVCCEDRQHCCPAGYTCNVKARSCEKEVVSAQPATFLARSPHVGVKDVECGEGHFCHDNQTCCRDNRQGWACCPYRQGVCCADRRHCCPAGFRCAARGTKCLRREAPRWDAPLRDPALRQLL
# partner: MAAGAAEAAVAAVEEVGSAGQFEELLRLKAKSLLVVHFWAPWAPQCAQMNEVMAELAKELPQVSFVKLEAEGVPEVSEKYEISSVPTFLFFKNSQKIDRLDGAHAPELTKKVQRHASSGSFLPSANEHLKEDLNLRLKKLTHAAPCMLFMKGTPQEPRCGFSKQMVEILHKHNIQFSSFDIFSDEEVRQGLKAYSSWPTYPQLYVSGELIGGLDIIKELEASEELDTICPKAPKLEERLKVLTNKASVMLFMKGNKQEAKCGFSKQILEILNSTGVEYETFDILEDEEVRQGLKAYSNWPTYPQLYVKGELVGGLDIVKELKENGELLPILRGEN
# B2: Acetylcholine receptor subunit gamma (Homo sapiens), P07510-2 (parent)
# chain: MHGGQGPLLLLLLLAVCLGAQGRNQEERLLADLMQNYDPNLRPAERDSDVVNVSLKLTLTNLISLNEREEALTTNVWIEMQWCDYRLRWDPRDYEGLWVLRVPSTMVWRPDIVLENKSQTYSTNEIDLQLSQEDGQTIEWIFIDPEAFTENGEWAIQHRPAKMLLDPAAPAQEAGHQKVVFYLLIQRKPLFYVINIIAPCVLISSVAILIHFLPAKAGGQKCTVAINVLLAQTVFLFLVAKKVPETSQAVPLISKYLTFLLVVTILIVVNAVVVLNVSLRSPHTHSMARGVRKVFLRLLPQLLRMHVRPLAPAAVQDTQSRLQNGSSGWSITTGEEVALCLPRSELLFQQWQRQGLVAAALEKLEKGPELGLSQFCGSLKQAAPAIQACVEACNLIACARHQQSHFDNGNEEWFLVGRVLDRVCFLAMLSLFICGTAGIFLMAHYNRVPALPFPGDPRPYLPSPD
# B3: DNA repair protein XRCC4 (Homo sapiens), Q13426 (parent)
# chain: MERKISRIHLVSEPSITHFLQVSWEKTLESGFVITLTDGHSAWTGTVSESEISQEADDMAMEKGKYVGELRKALLSGAGPADVYTFNFSKESCYFFFEKNLKDVSFRLGSFNLEKVENPAEVIRELICYCLDTIAENQAKNEHLQKENERLLRDWNDVQGRFEKCVSAKEALETDLYKRFILVLNEKKTKIRSLHNKLLNAAQEREKDIKQEGETAICSEMTADRDPVYDESTDEESENQTDLSGLASAAVSKDDSIISSLDVTDIAPSRKRRQRMQRNLGTEPKMAPQENQLQEKENSRPDSSLPETSKKEHISAENMSLETLRNSSPEDLFDEI
# B4: U4/U6 small nuclear ribonucleoprotein Prp31 (Homo sapiens), Q8WWY3 (parent)
# chain: MSLADELLADLEEAAEEEEGGSYGEEEEEPAIEDVQEETQLDLSGDSVKTIAKLWDSKMFAEIMMKIEEYISKQAKASEVMGPVEAAPEYRVIVDANNLTVEIENELNIIHKFIRDKYSKRFPELESLVPNALDYIRTVKELGNSLDKCKNNENLQQILTNATIMVVSVTASTTQGQQLSEEELERLEEACDMALELNASKHRIYEYVESRMSFIAPNLSIIIGASTAAKIMGVAGGLTNLSKMPACNIMLLGAQRKTLSGFSSTSVLPHTGYIYHSDIVQSLPPDLRRKAARLVAAKCTLAARVDSFHESTEGKVGYELKDEIERKFDKWQEPPPVKQVKPLPAPLDGQRKKRGGRRYRKMKERLGLTEIRKQANRMSFGEIEEDAYQEDLGFSLGHLGKSGSGRVRQTQVNEATKARISKTLQRTLQKQSVVYGGKSTIRDRSSGTASSVAFTPLQGLEIVNPQAAEKKVAEANQKYFSSMAEFLKVKGEKSGLMST
# partner: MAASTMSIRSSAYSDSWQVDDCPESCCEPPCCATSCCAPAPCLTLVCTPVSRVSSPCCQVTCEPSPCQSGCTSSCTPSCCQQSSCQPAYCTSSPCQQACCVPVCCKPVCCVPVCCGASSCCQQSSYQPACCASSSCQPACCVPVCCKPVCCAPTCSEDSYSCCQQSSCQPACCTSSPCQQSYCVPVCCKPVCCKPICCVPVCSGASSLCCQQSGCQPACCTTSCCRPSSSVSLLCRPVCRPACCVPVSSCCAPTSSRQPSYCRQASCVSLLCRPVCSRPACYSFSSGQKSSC
# B5: Sialidase-2 (Homo sapiens), Q9Y3R4 (parent)
# chain: MASLPVLQKESVFQSGAHAYRIPALLYLPGQQSLLAFAEQRASKKDEHAELIVLRRGDYDAPTHQVQWQAQEVVAQARLDGHRSMNPCPLYDAQTGTLFLFFIAIPGQVTEQQQLQTRANVTRLCQVTSTDHGRTWSSPRDLTDAAIGPAYREWSTFAVGPGHCLQLHDRARSLVVPAYAYRKLHPIQRPIPSAFCFLSHDHGRTWARGHFVAQDTLECQVAEVETGEQRVVTLNARSHLRARVQAQSTNDGLDFQESQLVKKLVEPPPQGCQGSVISFPSPRSGPGSPAQWLLYTHPTHSWQRADLGAYLNPRPPAPEAWSEPVLLAKGSCAYSDLQSMGTGPDGSPLFGCLYEANDYEEIVFLMFTLKQAFPAEYLPQ
# B6: Cyclin-dependent kinase 4 inhibitor C (Homo sapiens), P42773 (parent)
# chain: MAEPWGNELASAAARGDLEQLTSLLQNNVNVNAQNGFGRTALQVMKLGNPEIARRLLLRGANPDLKDRTGFAVIHDAARAGFLDTLQTLLEFQADVNIEDNEGNLPLHLAAKEGHLRVVEFLVKHTASNVGHRNHKGDTACDLARLYGRNEVVSLMQANGAGGATNLQ
# partner: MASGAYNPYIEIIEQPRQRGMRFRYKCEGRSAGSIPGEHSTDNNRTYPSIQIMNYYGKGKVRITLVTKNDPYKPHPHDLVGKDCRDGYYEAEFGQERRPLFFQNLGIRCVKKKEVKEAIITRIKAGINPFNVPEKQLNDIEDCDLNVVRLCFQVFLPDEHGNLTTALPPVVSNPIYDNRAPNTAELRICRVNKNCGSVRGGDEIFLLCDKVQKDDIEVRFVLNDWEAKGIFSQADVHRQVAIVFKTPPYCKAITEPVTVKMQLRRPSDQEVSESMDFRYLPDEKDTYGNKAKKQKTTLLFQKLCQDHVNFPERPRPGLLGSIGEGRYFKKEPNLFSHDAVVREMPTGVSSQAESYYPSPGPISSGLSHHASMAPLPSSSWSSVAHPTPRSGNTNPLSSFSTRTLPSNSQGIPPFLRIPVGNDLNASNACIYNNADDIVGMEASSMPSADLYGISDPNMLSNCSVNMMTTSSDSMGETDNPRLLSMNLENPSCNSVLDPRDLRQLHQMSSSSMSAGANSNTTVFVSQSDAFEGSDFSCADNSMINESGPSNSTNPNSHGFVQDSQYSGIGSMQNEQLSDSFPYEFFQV
# B7: Arylsulfatase A (Homo sapiens), P15289 (parent)
# chain: MGAPRSLLLALAAGLAVARPPNIVLIFADDLGYGDLGCYGHPSSTTPNLDQLAAGGLRFTDFYVPVSLCTPSRAALLTGRLPVRMGMYPGVLVPSSRGGLPLEEVTVAEVLAARGYLTGMAGKWHLGVGPEGAFLPPHQGFHRFLGIPYSHDQGPCQNLTCFPPATPCDGGCDQGLVPIPLLANLSVEAQPPWLPGLEARYMAFAHDLMADAQRQDRPFFLYYASHHTHYPQFSGQSFAERSGRGPFGDSLMELDAAVGTLMTAIGDLGLLEETLVIFTADNGPETMRMSRGGCSGLLRCGKGTTYEGGVREPALAFWPGHIAPGVTHELASSLDLLPTLAALAGAPLPNVTLDGFDLSPLLLGTGKSPRQSLFFYPSYPDEVRGVFAVRTGKYKAHFFTQGSAHSDTTADPACHASSSLTAHEPPLLYDLSKDPGENYNLLGGVAGATPEVLQALKQLQLLKAQLDAAVTFGPSQVARGEDPALQICCHPGCTPRPACCHCPDPHA
# partner: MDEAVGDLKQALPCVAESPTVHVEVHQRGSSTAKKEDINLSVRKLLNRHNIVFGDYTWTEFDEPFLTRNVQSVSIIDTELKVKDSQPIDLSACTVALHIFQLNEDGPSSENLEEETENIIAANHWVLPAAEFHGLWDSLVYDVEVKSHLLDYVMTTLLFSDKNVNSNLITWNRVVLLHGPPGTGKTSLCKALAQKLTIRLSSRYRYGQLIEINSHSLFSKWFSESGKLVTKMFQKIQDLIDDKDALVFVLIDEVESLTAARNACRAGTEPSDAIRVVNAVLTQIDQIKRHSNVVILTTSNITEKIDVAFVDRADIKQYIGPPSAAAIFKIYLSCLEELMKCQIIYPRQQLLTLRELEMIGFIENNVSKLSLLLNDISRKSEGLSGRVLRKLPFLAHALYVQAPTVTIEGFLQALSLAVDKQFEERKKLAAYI
# Variants of: B1
# Details: with glrx3_human GLRX3, O76003
row,effect of a mutation on the interaction,Variant
1,with no effect,P248L
2,disrupting interaction strength,P451L
3,disrupting interaction strength,R432C

# Variants of: B2
# Details: with mdfi_human MDFI
row,effect of a mutation on the interaction,Variant
1,disrupting interaction strength,V107G
2,disrupting interaction strength,R187C
3,disrupting interaction strength,R86C

# Variants of: B2
# Details: with nt2na_human NOTCH2NLA
# Target sequence in this assay (Q7Z3S9 whole entry): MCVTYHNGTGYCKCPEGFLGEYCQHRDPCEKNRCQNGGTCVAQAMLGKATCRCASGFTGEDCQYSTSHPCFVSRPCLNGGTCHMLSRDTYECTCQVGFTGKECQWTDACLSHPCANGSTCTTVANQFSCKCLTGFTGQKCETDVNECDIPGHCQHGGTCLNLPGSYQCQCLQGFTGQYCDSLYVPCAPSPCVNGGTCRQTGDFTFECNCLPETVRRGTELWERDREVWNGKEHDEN
row,effect of a mutation on the interaction,Variant
1,disrupting interaction strength,V107G
2,disrupting interaction strength,R187C
3,disrupting interaction strength,R86C

# Variants of: B2
# Details: with k1h1_human KRT31, Q15323
# Chain of k1h1_human KRT31, Q15323 (Q15323 whole entry): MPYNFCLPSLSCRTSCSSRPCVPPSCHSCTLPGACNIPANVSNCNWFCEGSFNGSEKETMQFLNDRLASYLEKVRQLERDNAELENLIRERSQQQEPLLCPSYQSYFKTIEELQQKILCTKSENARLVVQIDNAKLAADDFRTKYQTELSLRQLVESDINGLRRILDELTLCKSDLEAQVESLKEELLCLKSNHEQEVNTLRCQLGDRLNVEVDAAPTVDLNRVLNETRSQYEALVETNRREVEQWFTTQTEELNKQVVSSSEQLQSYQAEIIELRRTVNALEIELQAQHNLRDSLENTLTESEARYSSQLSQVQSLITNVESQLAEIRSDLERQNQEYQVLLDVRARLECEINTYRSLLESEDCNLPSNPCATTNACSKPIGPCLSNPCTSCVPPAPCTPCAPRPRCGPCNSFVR
row,effect of a mutation on the interaction,Variant
1,disrupting interaction strength,V107G
2,disrupting interaction strength,R187C
3,disrupting interaction strength,R86C

# Variants of: B2
# Details: with meox2_human MEOX2, P50222
# Chain of meox2_human MEOX2, P50222 (P50222 whole entry): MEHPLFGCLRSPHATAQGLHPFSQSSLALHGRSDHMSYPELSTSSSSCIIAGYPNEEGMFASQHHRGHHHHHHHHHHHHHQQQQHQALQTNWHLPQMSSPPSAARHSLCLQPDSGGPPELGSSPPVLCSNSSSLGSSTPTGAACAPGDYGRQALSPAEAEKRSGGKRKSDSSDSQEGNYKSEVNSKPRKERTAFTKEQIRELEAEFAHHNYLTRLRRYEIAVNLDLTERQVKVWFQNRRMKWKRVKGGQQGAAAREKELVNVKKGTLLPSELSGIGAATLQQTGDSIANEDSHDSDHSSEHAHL
row,effect of a mutation on the interaction,Variant
1,disrupting interaction strength,V107G
2,disrupting interaction strength,R187C
3,disrupting interaction strength,R86C

# Variants of: B3
# Details: with XRCC4, Q13426-3
row,effect of a mutation on the interaction,Variant
1,with no effect,I134T

# Variants of: B4
# Details: with kr109_human KRTAP10-9, P60411
row,effect of a mutation on the interaction,Variant
1,with no effect,L107V

# Variants of: B5
# Details: with nt2na_human NOTCH2NLA
# Target sequence in this assay (Q7Z3S9 whole entry): as the sequence (Q7Z3S9 whole entry) above
row,effect of a mutation on the interaction,Variant
1,with no effect,R41Q

# Variants of: B6
# Details: with REL
row,effect of a mutation on the interaction,Variant
1,disrupting interaction strength,V31L

# Variants of: B7
# Details: with pch2_human TRIP13, Q15645
row,effect of a mutation on the interaction,Variant
1,with no effect,N350S
